According to US20260035464A1 (STAIDSON BIOPHARMA, published 2026):

Legend:
[1] = biological target: T1, human BTLA (Uniprot Q7Z6A9) expressed on cells (human, UniProt Q7Z6A9 31-289); experiment: cell-based or functional assay
[2] = biological target: T2, huBTLA as coated in the binding ELISA of Example 3 (tag not stated) (human, UniProt Q7Z6A9 31-157); experiment: ELISA, huBTLA coated at 0.333 ug/mL, anti-human IgG Fc-AP detection
T2 construct: Detection was with anti-human IgG Fc
T2 sequence: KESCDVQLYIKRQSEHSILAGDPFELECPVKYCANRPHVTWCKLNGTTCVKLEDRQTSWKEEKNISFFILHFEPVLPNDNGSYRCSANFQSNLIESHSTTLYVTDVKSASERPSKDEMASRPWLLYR
Procedure: (§1) BTLA binding of purified recombinant chimeric antibodies by ELISA: The huBTLA and rhesus monkey BTLA antigen binding ELISA was performed on the purified recombinant chimeric antibodies. Briefly, 384-well, clear flat bottom high binding plates (Corning, cat #3700) were coated overnight at 4° C. with 0.333 μg/mL of huBTLA or rhesus monkey BTLA in PBS. The following purified process was performed as described in ELISA binding assay in Example 2, except that the secondary antibody was goat anti human IgG Fc-AP (Southern Biotech, cat #2014-04).

[3] = biological target: T3, human BTLA extracellular domain with C-terminal mouse IgG2a Fc tag (human; mouse, UniProt Q7Z6A9 31-157); experiment: blocking ELISA, huBTLA-mIgG2a Fc coated; competitor huHVEM-His (2 ug/ml)
T3 construct: also called huBTLA with mIgG2a Fc tag; not shown: mouse IgG2a Fc, C-terminal
T3 sequence: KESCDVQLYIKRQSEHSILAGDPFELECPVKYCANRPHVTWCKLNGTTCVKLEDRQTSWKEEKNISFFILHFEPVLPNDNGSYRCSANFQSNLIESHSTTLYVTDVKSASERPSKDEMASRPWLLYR
Procedure: HVEM blocking by purified recombinant chimeric antibodies by ELISA: Human HVEM (huHVEM) blocking ELISA was performed on purified recombinant chimeric anti-BTLA antibodies. Briefly, 384-well, clear flat bottom high binding plates (Corning, cat #3700) were coated overnight at 4° C. with 0.333 μg/mL purified huBTLA with mIgG2a Fc tag in PBS (coating solution). After removing the coating solution, the plates were blocked by adding blocking buffer and incubated at 37° C. for 1 hour. Plates were then washed 3 times with wash buffer. Serial dilution of purified chimeric antibodies in PBS were added to individual well followed by incubation at 37° C. for 1 hour. Plates were washed 3 times with wash buffer. Then 30 μL per well of 2 μg/ml human HVEM with His tag (Sino Biological, cat #10334-H08H) in assay buffer was added into the reaction and incubated for 1 hour. Plates were washed 3 times with wash buffer. Then 30 μL per well of mouse anti-his-AP (Southern Biotech, cat: 4603-04) at 1:500 dilution in ELISA diluent was added, and incubated at 37° C. for 30 min, then the plates were washed 5 times with wash buffer and developed for 30 minutes with 30 μL per well of pNPP substrate. Plates were analyzed with a Bio-TEK at 405 nm. The blocking IC₅₀ value represents the antibody concentration that inhibited 50% of huHVEM binding to coated human BTLA.

[4] = biological target: T4, rhesus monkey BTLA extracellular domain protein with His tag (Sino Biological, cat #90250-C08H) (rhesus monkey, UniProt G7MKA9 31-157); experiment: ELISA, rhesus monkey BTLA coated at 0.333 ug/mL, anti-human IgG Fc-AP detection
T4 construct: extracellular domain; Bought protein; also called His-tag-rhesus monkey BTLA; not shown: His tag
T4 sequence: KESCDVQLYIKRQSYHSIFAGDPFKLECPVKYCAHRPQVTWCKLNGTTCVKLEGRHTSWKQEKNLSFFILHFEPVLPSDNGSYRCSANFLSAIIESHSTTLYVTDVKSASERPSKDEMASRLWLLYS
Procedure: as §1

[5] = biological target: T2, huBTLA as coated in the binding ELISA …; experiment: ELISA, plate coated with huBTLA, detection with goat anti-human IgG Fc-AP, OD405
Procedure: as §1

[6] = biological target: T5, human BTLA extracellular domain with C-terminal 10xHis tag (human, UniProt Q7Z6A9 31-157); experiment: BLI (Octet RED96), antibody captured on AHC biosensor, His-tag-huBTLA in solution, 1:1 model
T5 construct: also called HuBTLA-His; His-tag-huBTLA
T5 sequence: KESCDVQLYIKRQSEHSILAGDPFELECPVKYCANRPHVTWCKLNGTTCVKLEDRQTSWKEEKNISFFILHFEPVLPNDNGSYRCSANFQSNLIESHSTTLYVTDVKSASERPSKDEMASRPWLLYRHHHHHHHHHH
Procedure: (§2) The following kinetic assay was performed using anti-human IgG Fc capture (AHC) biosensors (ForteBio) in kinetics buffer (PBS, 0.1% Tween-20 and 1% bovine serum albumin): (a) antibody (2 μg/mL) for 300 sec, (b) baseline for 120 sec, (c) association with purified His-tag-huBTLA (2.5, 0.5 and 0 μg/mL) and His-tag-rhesus monkey BTLA (Sino Biologcal, cat #90250-C08H) (2.5, 0.5 and 0 μg/mL) for 420 sec and (d) dissociation for 1200 sec. Data fitting and analysis was performed with Octet data analysis software 8.0 (ForteBio) using a 1:1 binding model after Savitzky-Golay filtering.

[7] = biological target: T4, rhesus monkey BTLA extracellular domain …; experiment: ELISA, plate coated with rhesus monkey BTLA, detection with goat anti-human IgG Fc-AP, OD405
Procedure: as §1

[8] = biological target: T1, human BTLA (Uniprot Q7Z6A9) expressed …; experiment: flow cytometry, His-mouse HVEM on Expi293-huBTLA cells, PE anti-His antibody, MFI
Procedure: (§3) Cells were washed and stained with PE conjugated anti-His antibody (Thermofisher Scientific, CAT: TA150130). For antibody blocking assay, the exemplary humanized anti-BTLA antibody SB2003-12 was pre-incubated with the cell line followed by mouse HVEM and anti-His antibody staining. Cells were washed and fixed with 2% PFA and were analyzed by flow cytometry with Attune. MFI of HVEM staining was analyzed with FlowJo software.

[9] = biological target: T6, extracellular domain of human BTLA with FAS, expressed on Jurkat cells (human, UniProt Q7Z6A9 31-157; P25445 174-335, limits assumed); experiment: cell-based or functional assay
T6 sequence (looked up): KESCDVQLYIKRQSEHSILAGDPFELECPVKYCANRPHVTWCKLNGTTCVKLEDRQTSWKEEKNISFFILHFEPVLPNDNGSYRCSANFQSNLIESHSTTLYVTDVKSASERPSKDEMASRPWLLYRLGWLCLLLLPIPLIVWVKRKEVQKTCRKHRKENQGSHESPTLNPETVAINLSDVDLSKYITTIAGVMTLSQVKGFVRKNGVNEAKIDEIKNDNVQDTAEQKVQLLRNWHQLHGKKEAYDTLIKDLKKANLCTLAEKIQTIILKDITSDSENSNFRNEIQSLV

[10] = biological target: T1, human BTLA (Uniprot Q7Z6A9) expressed …; experiment: cell-based or functional assay; remark: listed apart in the source
[11] = biological target: T1, human BTLA (Uniprot Q7Z6A9) expressed …; experiment: flow cytometry on huBTLA-overexpressing Expi293 cells, MFI
Procedure: (§4) Expi293 cells stably overexpressing huBTLA were incubated with the chimeric anti-BTLA antibodies 83F2 or 86B7 in PBS containing 0.5% BSA, 1 mM EDTA, and 0.1% sodium azide (FACS buffer) for 30 minutes at 4° C. The cells were washed, and then incubated with 10 nM phycoerythrin (PE) conjugated anti-Human Fc Ab (BioLegend, cat #409304) for 20 minutes at 4° C. Cells were washed and then analyzed by flow cytometry with Attune (ThermoFisher Scientific). Data were analyzed with FlowJo software. Antibody binding is represented as median fluorescence intensity (MFI).
FACS based binding assays of humanized anti-BTLA antibodies were performed as described above in Example 3.

[12] = biological target: T5, human BTLA extracellular domain with …; experiment: BLI (Octet RED96), antibody on AHC biosensor, His-tag-huBTLA in solution
Procedure: as §2
(§5) Binding affinities (monovalent Kd) of humanized anti-BTLA antibodies were determined using Biolayer interferometry on the Octet RED96 instrument (ForteBio) as described above in Example 3, except for (c) association with His-tag-huBTLA ([…]) for 420 sec.

[13] = biological target: T5, human BTLA extracellular domain with …; experiment: BLI (Octet RED96), antibody on AHC biosensor, His-tag-huBTLA in solution; column head prints nM, but Koff/Kon shows the values are in M
Procedure: as §2, §5

[14] = biological target: T1, human BTLA (Uniprot Q7Z6A9) expressed …; experiment: flow cytometry blocking assay on huBTLA-overexpressing Expi293 cells, antibody titrated, soluble human HVEM-mouse IgG2a Fc detected
Procedure: (§6) Expi293 cells stably overexpressing huBTLA were incubated with chimeric anti-BTLA antibody 83F2 or 86B7 for 30 minutes at 4° C. The cells were washed, and then incubated with human HVEM-mouse IgG2a Fc recombinant protein (Acro Biosystems, cat #HVM-H5255) at […] concentration for 20 minutes at 4° C. The human HVEM bindings were detected by goat anti-mouse Alexa 488 secondary antibody (ThermoFisher, cat #A-11029). Cells were washed and acquired by flow cytometry with Attune. Data were analyzed with FlowJo software. BTLA binding is represented as MFI.
FACS based blocking assays of humanized anti-BTLA antibodies were performed as described above in Example 3.

[15] = biological target: T1, human BTLA (Uniprot Q7Z6A9) expressed …; experiment: flow cytometry blocking assay, Expi293-huBTLA cells pre-incubated with titrated SB2003-12, then His-mouse HVEM (concentration not given) and PE anti-His antibody
Procedure: as §3

[16] = biological target: T1, human BTLA (Uniprot Q7Z6A9) expressed …; experiment: flow cytometry on Expi293 cells stably overexpressing huBTLA, PE anti-human Fc
Source text: To examine the binding of the chimeric anti-BTLA antibodies to huBTLA overexpressing cells, Expi293 cells stably overexpressing huBTLA were used to perform FACS analysis. Briefly, the coding sequence of huBTLA (Uniprot, Q7Z6A9) was cloned into a lentiviral vector and the recombinant virus was packaged according to the instruction of the virus packaging kit (Lenti-X™ Packaging Single Shots, Cat #631275, Takada). The Expi293 cells were transduced with the recombinant virus.
as §4

[17] = biological target: T1, human BTLA (Uniprot Q7Z6A9) expressed …; experiment: flow cytometry blocking on huBTLA-overexpressing Expi293 cells; competitor human HVEM-mouse IgG2a Fc
Procedure: as §6

B1: chimeric anti-BTLA antibody 96F11 (antibody, V domains shown)
VH: EVQLQQSGAELVKPGASVELSCTASGFNIKDTYIYWVKQRPEQGLQWIGRIDPANGHTKYDPRFQDKATLTAEISSNTAHLQLNSLTSEDTAVYFCVRGGDHPYYVMDWWGQGTSVTVSS
VL: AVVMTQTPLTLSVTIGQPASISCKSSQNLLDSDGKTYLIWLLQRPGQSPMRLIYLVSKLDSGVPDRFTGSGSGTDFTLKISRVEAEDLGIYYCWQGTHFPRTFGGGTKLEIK
**Q.** Which results are given for B1?
**A.** EC50 of recovery of IL-2 production, Raji-HVEM/Jurkat-BTLA coculture [1]: 2.54 nM; EC50 [2]: 0.0482 nM; IC50 [3]: 1.04 nM; EC50 [4]: 0.057 nM; EC50 (read off the curve) [5]: ~0.3 nM; Kd [6]: 1.18 nM; koff [6]: 0.000697 s⁻¹; kon [6]: 607000 M⁻¹ s⁻¹; EC50 (read off the curve) [7]: ~0.4 nM

B2: His-mouse HVEM protein (Sino Biological, cat #10567-M03H) (ligand, UniProt Q80WM9 39-206, looked up)
chain: QPSCRQEEFLVGDECCPMCNPGYHVKQVCSEHTGTVCAPCPPQTYTAHANGLSKCLPCGVCDPDMGLLTWQECSSWKDTVCRCIPGYFCENQDGSHCSTCLQHTTCPPGQRVEKRGTHDQDTVCADCLTGTFSLGGTQEECLPWTNCSAFQQEVRRGTNSTDTTCSSQ
notes: Bought protein; also called musHVEM; not shown: His tag
**Q.** B2 was tested. Which “EC50 (read off the curve)” value [8] did it give?
**A.** ~2 nM

B3: humanized anti-BTLA antibody SB2003-12 (antibody, V domains shown)
VH: QVTLKESGPTLVKPTQTLTLTCTFSGFSLSTFGMGVSWIRQPPGKALEWLAHIYWDDDKRFNPSLKSRLTITKDTSKNQVVLTMTNMDPVDTATYYCAHGNWDGETYFDYWGQGTLVTVSS
VL: DVVMTQSPLSLPVTLGQPASISCKSTQSLLDSDGKTYLNWLQQRPGQSPRSLIYLVSKLDSGVPDRFSGSGSGTDFTLKISRVEAEDVGVYYCWQGTHFPWTFGQGTKVEIK
**Q.** How did the “EC50 of inhibition of huHVEM-Fc-induced apoptosis, Jurkat-huBTLA-FAS cells (ATP luminescence)” value [9] turn out when B3 was run?
**A.** 0.0614 nM

**Q.** What about the “EC50 of recovery of IL-2 production, Raji-HVEM/primary human T cell coculture” value [10] of the same binder?
**A.** 4.91 nM

**Q.** And the “EC50 (read off the curve)” value [11]?
**A.** ~0.8 nM

**Q.** And the koff [12]?
**A.** 8.05e-05 s⁻¹

**Q.** What about the kon [12] of the same binder?
**A.** 418000 M⁻¹ s⁻¹

**Q.** What about the Kd [13] of the same binder?
**A.** 0.198 nM

**Q.** And the “IC50 (read off the curve)” value [14]?
**A.** ~0.4 nM

**Q.** And the “IC50 (read off the curve)” value [15]?
**A.** ~2 nM

B4: chimeric anti-BTLA antibody 83F2 (antibody, V domains shown)
VH: QVQFQQSGAELARPGASVKLSCKASGYTFTDFWIQWVKQRPGQGLEWIGTIYPGDGDTRENQKFKGRATLTADKSSSTAYMQLSSLESDDSAVYYCARGNGNSWFAYWGQGTLVTVSA
VL: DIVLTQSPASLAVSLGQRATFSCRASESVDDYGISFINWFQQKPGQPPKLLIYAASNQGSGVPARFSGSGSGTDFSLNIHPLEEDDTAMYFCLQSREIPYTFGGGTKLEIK
**Q.** What does the source list for B4?
**A.** EC50 of recovery of IL-2 production, Raji-HVEM/Jurkat-BTLA coculture [1]: 1.85 nM; EC50 [2]: 0.0564 nM; IC50 [3]: 1.24 nM; EC50 [16]: 1.85 nM; EC50 [4]: 0.0542 nM; EC50 (read off the curve) [5]: ~0.4 nM; Kd [6]: 2.91 nM; koff [6]: 0.000548 s⁻¹; kon [6]: 188000 M⁻¹ s⁻¹; EC50 (read off the curve) [7]: ~0.4 nM; IC50 [17]: 0.656 nM
